From US20150118233A1

What was measured:
[1] = biological target: hRSV FTM- NN protein (membrane anchorless form of the Long fusion protein, 70 kDa) (hRSV strain Long); assay: SPR (Biacore) on Ftm-NN protein
[2] = substrate: F protein of hRSV strain Long (hRSV strain Long); assay: cell-based or functional assay
[3] = biological target: hRSV FTM- NN protein (membrane anchorless form of the Long fusion protein, 70 kDa) (hRSV strain Long); assay: SPR (Biacore T100), FTM- NN amine-coupled, 1:1 Langmuir fit
[4] = biological target: hRSV FTM- NN protein (membrane anchorless form of the Long fusion protein, 70 kDa) (hRSV strain Long); assay: competition ELISA on coated FTM- NN; competitor biotinylated Synagis Fab
[5] = substrate: F protein of hRSV strain Long (hRSV strain Long); assay: binding ELISA on coated hRSV (Hytest), anti-VHH detection
[6] = biological target: hRSV FTM- NN protein (membrane anchorless form of the Long fusion protein, 70 kDa) (hRSV strain Long); assay: SPR (Biacore) on Ftm-NN protein; Table B-5 run (selected NC41 variants), separate from Table B-1
[7] = biological target: hRSV FTM- NN protein (membrane anchorless form of the Long fusion protein, 70 kDa) (hRSV strain Long); assay: binding ELISA on immobilised FTM- protein; detection with rabbit anti-VHH and HRP goat anti-rabbit
[8] = substrate: F protein of Long escape mutant R7C2/1 (K272E in antigenic site II) (hRSV strain Long escape mutant); assay: ELISA on extract of HEp-2 cells infected with R7C2/1
[9] = substrate: F protein of hRSV strain B-1 (hRSV strain B-1); assay: cell-based or functional assay
[10] = biological target: hRSV FTM- NN protein (membrane anchorless form of the Long fusion protein, 70 kDa) (hRSV strain Long); assay: Alphascreen competition: FTM- NN (0.3 nM) bridged by biotinylated Synagis Fab and 101F Fab acceptor beads

Binder	RSV neutralization IC50 [2]	Kd [3]	koff [3]	kon [3]	EC50 [4]	EC50 [5]	EC50 (read off the curve) [7]	also measured
Nanobody NC41 (VHH) VHH: EVQLVESGGGLVQAGGSLSISCAASGGSLSNYVLGWFRQAPGKEREFVAAINWRGDITIGPPNVEGRFTISRDNAKNTGYLQMNSLAPDDTAVYYCGAGTPLNPGAYIYDWSYDYWGRGTQVTVSS	58 nM	8.1 nM	0.0067 s⁻¹	820000 M⁻¹ s⁻¹	32 nM	0.41 nM	1 nM	koff [1]: 0.0067 s⁻¹; kon [1]: 1.7e+06 M⁻¹ s⁻¹; Neutralization IC50 (first assay) [2]: 202 nM; Neutralization IC50 (second assay) [2]: 122 nM; Kd [6]: 4 nM
RSV400 (7B2-15GS-7B2-15GS-7B2) (bispecific antibody) EVQLVESGGGLVQAGDSLRLSCAASGRTFSSYAMGWFRQAPGKEREFVAAISWSDGSTYYADSVKGRFTISRDNAKNTVYLQMNSLKPEDTAVYYCAADLTSTNPGSYIYIWAYDYWGQGTQVTVSSGGGGSGGGGSGGGGSEVQLVESGGGLVQAGDSLRLSCAASGRTFSSYAMGWFRQAPGKEREFVAAISWSDGSTYYADSVKGRFTISRDNAKNTVYLQMNSLKPEDTAVYYCAADLTSTNPGSYIYIWAYDYWGQGTQVTVSSGGGGSGGGGSGGGGSEVQLVESGGGLVQAGDSLRLSCAASGRTFSSYAMGWFRQAPGKEREFVAAISWSDGSTYYADSVKGRFTISRDNAKNTVYLQMNSLKPEDTAVYYCAADLTSTNPGSYIYIWAYDYWGQGTQVTVSS	–	–	–	–	–	–	0.3 nM	binding (% reactivity relative to Long wild type) [8]: 13%
Nanobody NC23 (VHH) VHH: EVQLVESGGGLVQPGGSLRLSCAASGRTFSSIAMGWFRQAPGKEREFVAAISWSRGRTFYADSVKGRFIISRDDAANTAYLQMNSLKPEDTAVYYCAVDTASWNSGSFIYDWAYDHWGQGTQVTVSS	144 nM	0.92 nM	0.00074 s⁻¹	800000 M⁻¹ s⁻¹	2.3 nM	0.1 nM	–	–
Nanobody 15H8 (VHH) VHH: EVQLVESGGGLVQAGGSLRLSCAASGRSFSNYVLGWFRQAPGKEREFVAAISFRGDSAIGAPSVEGRFTISRDNAKNTGYLQMNSLVPDDTAVYYCGAGTPLNPGAYIYDWSYDYWGRGTQVTVSS	200 nM	16 nM	0.021 s⁻¹	1.2e+06 M⁻¹ s⁻¹	39 nM	0.83 nM	1 nM	–
Nanobody 7B2 (VHH) VHH: EVQLVESGGGLVQAGDSLRLSCAASGRTFSSYAMGWFRQAPGKEREFVAAISWSDGSTYYADSVKGRFTISRDNAKNTVYLQMNSLKPEDTAVYYCAADLTSTNPGSYIYIWAYDYWGQGTQVTVSS	91 nM	1.1 nM	0.00065 s⁻¹	570000 M⁻¹ s⁻¹	1.9 nM	0.09 nM	0.3 nM	–
Nanobody 15B3 (VHH) VHH: EVQLVESGGGLVQPGGSLRLSCAASGLTLDYYALGWFRQAPGKEREGVSCISSSDHSTTYTDSVKGRFTISWDNAKNTLYLQMNSLKPGDTAVYYCAADPALGCYSGSYYPRYDYWGQGTQVTVSS	–	0.67 nM	0.00027 s⁻¹	410000 M⁻¹ s⁻¹	–	0.058 nM	–	binding (% reactivity relative to Long wild type) [8]: > 75%
Nanobody 191E4 (VHH) VHH: EVQLVESGGGLVQAGGSLRLSCAASGPTFSADTMGWFRQAPGKEREFVATIPWSGGIAYYSDSVKGRFTMSRDNAKNTVDLQMNSLKPEDTALYYCAGSSRIYIYSDSLSERSYDYWGQGTQVTVSS	–	0.27 nM	0.00015 s⁻¹	570000 M⁻¹ s⁻¹	–	0.083 nM	–	binding (% reactivity relative to Long wild type) [8]: > 75%
RSV106 (7B2-15GS-7B2) (VHH) EVQLVESGGGLVQAGDSLRLSCAASGRTFSSYAMGWFRQAPGKEREFVAAISWSDGSTYYADSVKGRFTISRDNAKNTVYLQMNSLKPEDTAVYYCAADLTSTNPGSYIYIWAYDYWGQGTQVTVSSGGGGSGGGGSGGGGSEVQLVESGGGLVQAGDSLRLSCAASGRTFSSYAMGWFRQAPGKEREFVAAISWSDGSTYYADSVKGRFTISRDNAKNTVYLQMNSLKPEDTAVYYCAADLTSTNPGSYIYIWAYDYWGQGTQVTVSS	–	–	–	–	–	–	–	binding (% reactivity relative to Long wild type) [8]: 4.4%
RSV404 (15H8-15GS-15H8-15GS-15H8) (VHH) EVQLVESGGGLVQAGGSLRLSCAASGRSFSNYVLGWFRQAPGKEREFVAAISFRGDSAIGAPSVEGRFTISRDNAKNTGYLQMNSLVPDDTAVYYCGAGTPLNPGAYIYDWSYDYWGRGTQVTVSSGGGGSGGGGSGGGGSEVQLVESGGGLVQAGGSLRLSCAASGRSFSNYVLGWFRQAPGKEREFVAAISFRGDSAIGAPSVEGRFTISRDNAKNTGYLQMNSLVPDDTAVYYCGAGTPLNPGAYIYDWSYDYWGRGTQVTVSSGGGGSGGGGSGGGGSEVQLVESGGGLVQAGGSLRLSCAASGRSFSNYVLGWFRQAPGKEREFVAAISFRGDSAIGAPSVEGRFTISRDNAKNTGYLQMNSLVPDDTAVYYCGAGTPLNPGAYIYDWSYDYWGRGTQVTVSS	–	–	–	–	–	–	0.3 nM	–
RSV116 (NC41-15GS-NC41) (bispecific antibody) EVQLVESGGGLVQAGGSLSISCAASGGSLSNYVLGWFRQAPGKEREFVAAINWRGDITIGPPNVEGRFTISRDNAKNTGYLQMNSLAPDDTAVYYCGAGTPLNPGAYIYDWSYDYWGRGTQVTVSSGGGGSGGGGSGGGGSEVQLVESGGGLVQAGGSLSISCAASGGSLSNYVLGWFRQAPGKEREFVAAINWRGDITIGPPNVEGRFTISRDNAKNTGYLQMNSLAPDDTAVYYCGAGTPLNPGAYIYDWSYDYWGRGTQVTVSS	–	–	–	–	–	–	0.3 nM	–
Nanobody 191D3 (VHH) VHH: EVQLVESGGGLVQAGGSLRLSCEASGRTYSRYGMGWFRQAPGKEREFVAAVSRLSGPRTVYADSVKGRFTISRDNAENTVYLQMNSLKPEDTAVYTCAAELTNRNSGAYYYAWAYDYWGQGTQVTVSS	253 nM	1.9 nM	0.0028 s⁻¹	1.5e+06 M⁻¹ s⁻¹	5.9 nM	0.15 nM	–	–
Nanobody 1E4 (VHH) VHH: EVQLVESGGGLVQAGGSLRLSCEASGRTFSSYGMGWFRQAPGKEREFVAAVSRLSGPRTVYADSVKGRFTISRDNAENTVYLQMNSLKPEDTAVYTCAAELTNRNPGAYYYTWAYDYWGQGTQVTVSS	380 nM	1.6 nM	0.0013 s⁻¹	800000 M⁻¹ s⁻¹	4.5 nM	0.066 nM	–	–
RSV407 (NC41-15GS-NC41-15GS-NC41) (VHH) EVQLVESGGGLVQAGGSLSISCAASGGSLSNYVLGWFRQAPGKEREFVAAINWRGDITIGPPNVEGRFTISRDNAKNTGYLQMNSLAPDDTAVYYCGAGTPLNPGAYIYDWSYDYWGRGTQVTVSSGGGGSGGGGSGGGGSEVQLVESGGGLVQAGGSLSISCAASGGSLSNYVLGWFRQAPGKEREFVAAINWRGDITIGPPNVEGRFTISRDNAKNTGYLQMNSLAPDDTAVYYCGAGTPLNPGAYIYDWSYDYWGRGTQVTVSSGGGGSGGGGSGGGGSEVQLVESGGGLVQAGGSLSISCAASGGSLSNYVLGWFRQAPGKEREFVAAINWRGDITIGPPNVEGRFTISRDNAKNTGYLQMNSLAPDDTAVYYCGAGTPLNPGAYIYDWSYDYWGRGTQVTVSS	–	–	–	–	–	–	0.2 nM	Neutralization IC50 [9]: 0.66 nM; Neutralization, ratio to Synagis [9]: 3 fold; Neutralization IC50 [2]: 0.0941 nM; Neutralization, ratio to Synagis [2]: 59 fold
Synagis® Fab (Fab, part only; not given: Constant regions, biotin sites, V domains shown, not shown: another chain or arm of the molecule) VH: QVTLRESGPALVKPTQTLTLTCTFSGFSLSTSGMSVGWIRQPPGKALEWLADIWWDDKKDYNPSLKSRLTISKDTSKNQVVLKVTNMDPADTATYYCARSMITNWYFDVWGAGTTVTVSS VL: DIQMTQSPSTLSASVGDRVTITCKCQLSVGYMHWYQQKPGKAPKLLIYDTSKLASGVPSRFSGSGSGTEFTLTISSLQPDDFATYYCFQGSGYPFTFGGGTKLEIK	–	–	–	–	–	–	–	IC50 [10]: 0.597 nM
